Measured values reported in US20200371101A1 (Regeneron, published 2020).
Read-outs that look alike come from different tables or passages of the source. Bridge positions count the residues as written; N and C are the ends. Square brackets hold non-standard residues; d marks the D form. Primed or numbered codes have the meaning given here. Ends that are not written are not given here. * marks the point of attachment. Biotin = O=C1N[C@H]2[C@H](CS[C@H]2CCCCC(=O)*)N1; PEG6′ = PEG linker with 6 ethylene glycol units; PEG8′ = PEG linker with 8 ethylene glycol units; Trp(1-Me) = Cn1cc(C[C@H](N)C(=O)O)c2ccccc21; Phe(4-F) = N[C@@H](Cc1ccc(F)cc1)C(=O)O; Me‑Phe = methyl phenylalanine; PEG3′ = not defined here; Ph‑Tyr = phenyl tyrosine; Pra = C#CC[C@H](N)C(=O)O; Az4 = not defined here; Inh = not defined here; Me‑Val = methyl valine

Columns and labels:
[1] = target: IDO1 in HeLa cells stimulated with IFNγ (UniProt P14902 1-403, limits assumed); assay: cell-based or functional assay
[2] = target: T1, His-tagged IDO1 human recombinant protein (71182, BPS Biosciences) (human, UniProt P14902 2-403); assay: cell-based or functional assay
[3] = target: T1, His-tagged IDO1 human recombinant …; assay: cell-based or functional assay; remark: listed apart in the source
[4] = target: T1, His-tagged IDO1 human recombinant …; assay: cell-based or functional assay; remark: listed apart in the source
[5] = target: T1, His-tagged IDO1 human recombinant …; assay: ELISA: biotinylated peptide on NeutrAvidin plate, 6xHis-tagged human IDO1 titrated
Protocol: The plate was aspirated and then washed with Wash Buffer (0.05% (v/v) Tween-20 in PBS, 6×). His-tagged IDO1 human recombinant protein (71182, BPS Biosciences) was serially diluted in Wash Buffer (from 200 to 0 nM) and incubated in the designated microwells for 1 h at room temperature. […] (ab49746, Abcam) was prepared at 1:10,000 dilution and added to the microwells for 1 h at room temperature. The plate was aspirated and washed with Wash Buffer (5×). AttoPhos® AP Fluorescent Substrate System (S1000, Promega) was employed to develop the microwells. Using an excitation wavelength of 430 nm, fluorescent emission at 535 nm was recorded by Beckman Coulter DTX880 photometer.

[6] = target: T1, His-tagged IDO1 human recombinant …; assay: ELISA: biotin-PEG3 macrocycle on NeutrAvidin plate, His-tagged human IDO1 titrated, AP-conjugated anti-6XHis antibody, fluorescence
[7] = target: T1, His-tagged IDO1 human recombinant …; assay: binding affinity, assay not named

T1 sequence (P14902 2-403 limits assumed): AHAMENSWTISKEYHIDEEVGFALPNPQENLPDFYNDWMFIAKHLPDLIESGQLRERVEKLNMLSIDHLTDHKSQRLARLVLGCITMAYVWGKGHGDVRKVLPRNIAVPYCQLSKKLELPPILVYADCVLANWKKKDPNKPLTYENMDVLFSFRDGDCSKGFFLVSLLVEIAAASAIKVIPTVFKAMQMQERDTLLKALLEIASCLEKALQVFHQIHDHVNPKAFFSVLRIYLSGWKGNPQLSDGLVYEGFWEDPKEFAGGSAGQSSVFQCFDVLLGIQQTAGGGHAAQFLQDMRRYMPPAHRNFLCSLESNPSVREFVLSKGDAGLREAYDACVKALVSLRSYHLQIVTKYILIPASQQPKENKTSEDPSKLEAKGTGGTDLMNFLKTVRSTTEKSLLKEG
IDO1 in HeLa cells stimulated with IFNγ, sequence (P14902 whole entry): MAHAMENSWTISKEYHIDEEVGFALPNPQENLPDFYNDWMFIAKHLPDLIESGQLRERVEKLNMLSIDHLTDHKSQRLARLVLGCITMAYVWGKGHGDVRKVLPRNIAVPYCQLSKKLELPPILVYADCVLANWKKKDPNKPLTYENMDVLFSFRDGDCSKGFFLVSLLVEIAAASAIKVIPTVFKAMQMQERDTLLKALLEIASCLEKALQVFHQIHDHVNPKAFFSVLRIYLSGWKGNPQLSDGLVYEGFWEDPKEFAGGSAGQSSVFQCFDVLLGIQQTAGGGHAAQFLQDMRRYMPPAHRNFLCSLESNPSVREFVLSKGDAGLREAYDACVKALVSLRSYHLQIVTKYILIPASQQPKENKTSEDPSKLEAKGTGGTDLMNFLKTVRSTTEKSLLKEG

B1: Inh-PEG6-wyry (other)
peptide: {Inh-PEG6′}-[Pra][dW][dY][dR][dY]-Az4
modifications: triazole N-C; numbers in words are those of the source; reading uncertain; also: Inh joined through PEG6 linker, printed as Inh-PEG6-wyry
% inhibition at 8 µM, HeLa [1]: 47.8% | Inhibition Recombinant IDO1 IC50 [2]: 338 nM | IC50, IDO1 inhibition assay [3]: 338 nM

B2: Deprotected-Inh-Gly2-wyvay (other)
peptide: Inh-GG[dW][dY][dV][dA][dY]
modifications: triazole (positions not given here); not fully specified (residue 2, C-terminus); printed as Deprotected-Inh-Gly2-wyvay; reading uncertain; also: IDO1 inhibitor Inh on the Gly2 linker, ring closed by triazole between flanking Pra and Az4
IC50, IDO1 inhibition assay [4]: 1010 nM

B3: (F-Phe)n(Me-Trp)(Me-Trp)w macrocycle (peptide)
peptide: [Pra][Phe(4-F)][dN][Trp(1-Me)][Trp(1-Me)][dW]-Az4
modifications: triazole N-C; reading uncertain; also: biotinylated for ELISA, site not given here, printed as (F-Phe)n(Me-Trp)(Me-Trp)w
EC50 [5]: 100 nM

B4: ww(F-Phe) (peptide)
chain: {Biotin-PEG3′}-[dW]-[dW]-[Phe(4-F)]
modifications: triazole (positions not given here); also: triazole-cyclised
EC50 [6]: 96 nM

B5: w(Ph-Tyr)(Me-Val)G(Me-Phe) (peptide)
peptide: [dW][Ph‑Tyr][Me‑Val]G[Me‑Phe]
modifications: not fully specified; printed as w(Ph-Tyr)(Me-Val)G(Me-Phe)
notes: Modified version of wyvay
EC50 [7]: 18 nM

B6: Inh-PEG8-wyry (other)
peptide: {Inh-PEG8′}-[Pra][dW][dY][dR][dY]-Az4
modifications: triazole N-C; numbers in words are those of the source; reading uncertain; also: Inh joined through PEG8 linker, printed as Inh-PEG8-wyry
IC50, IDO1 inhibition assay [3]: 3740 nM

B7: Inh-PEG4-wyry (other)
peptide: [Pra][dW][dY][dR][dY]-Az4
modifications: triazole N-C; numbers in words are those of the source; reading uncertain; also: small molecule Inh joined via PEG4 linker, attachment point not given here
IC50, IDO1 inhibition assay [3]: 871 nM
